Laboratory results: article doi:10.1101/2020.04.18.045682

How the values were obtained:
[1] = molecular target: type I-D Cascade lacking Cas11d (Synechocystis sp. PCC 6803); assay: negative-stain electron microscopy, 3D reconstruction
[2] = molecular target: Cas10d (Synechocystis sp. PCC 6803); assay: affinity purification with mass spectrometry

| Substance | stoichiometry N [1] | stoichiometry N [2] |
| --- | --- | --- |
| Cas11d (natural protein) | 2 | 2 |
| Cas7d (natural protein) |  | 6 |
| Cas6d (natural protein) |  | 1 |
| Cas5d (natural protein) |  | 1 |
